11 molecules from patent US20230287120A1 (ALLOGENE THERAPEUTICS, published 2023) can be followed below.

Assay [1] concerns the target T1, human DLL3 extracellular domain (ECD) with C-terminal 8xHis tag and Avi tag (human, UniProt Q9NYJ7 27-492).
T1 construct: extracellular domain; Expressed in Expi293, purified by IMAC and SEC; also called huDLL3; not shown: Avi tag
T1 sequence: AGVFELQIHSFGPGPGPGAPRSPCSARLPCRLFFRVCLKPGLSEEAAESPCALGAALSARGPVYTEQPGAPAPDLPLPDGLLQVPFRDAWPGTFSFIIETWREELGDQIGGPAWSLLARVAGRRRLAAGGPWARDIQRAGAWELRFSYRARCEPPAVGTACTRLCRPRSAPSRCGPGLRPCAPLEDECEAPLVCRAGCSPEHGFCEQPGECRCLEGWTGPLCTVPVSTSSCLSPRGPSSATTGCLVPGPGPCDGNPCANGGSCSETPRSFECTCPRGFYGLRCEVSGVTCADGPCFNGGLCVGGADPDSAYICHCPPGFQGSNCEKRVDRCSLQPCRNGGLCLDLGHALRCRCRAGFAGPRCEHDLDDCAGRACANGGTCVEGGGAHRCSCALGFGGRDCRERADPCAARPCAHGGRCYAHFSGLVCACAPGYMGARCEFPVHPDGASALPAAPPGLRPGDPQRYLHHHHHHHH
The assay is described as follows: SPR (Biacore), 37 C; IgG captured on chip, human DLL3 ECD in solution; 1:1 Langmuir fit. On the technique in general: Surface plasmon resonance follows binding to a sensor surface in real time, without labels.

Assay [2] addresses T2, Flag tagged recombinant DLL3 (Adipogen) (Homo sapiens (Human), UniProt Q9NYJ7 27-492).
T2 construct: Bought reagent; also called Flag-DLL3
T2 sequence: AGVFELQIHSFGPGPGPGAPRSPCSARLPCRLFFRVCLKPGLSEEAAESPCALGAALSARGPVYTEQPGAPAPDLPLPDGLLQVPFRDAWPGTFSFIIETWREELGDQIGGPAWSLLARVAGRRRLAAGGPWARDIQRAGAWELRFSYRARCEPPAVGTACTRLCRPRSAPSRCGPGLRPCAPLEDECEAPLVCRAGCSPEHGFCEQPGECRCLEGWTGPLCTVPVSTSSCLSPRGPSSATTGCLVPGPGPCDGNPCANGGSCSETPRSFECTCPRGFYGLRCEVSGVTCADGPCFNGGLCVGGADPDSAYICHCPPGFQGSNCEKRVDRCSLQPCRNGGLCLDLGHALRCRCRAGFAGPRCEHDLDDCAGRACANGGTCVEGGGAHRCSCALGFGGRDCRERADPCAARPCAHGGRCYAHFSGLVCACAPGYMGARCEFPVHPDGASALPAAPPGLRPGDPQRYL
As to the kind of experiment: flow cytometry, percent of T cells that recognise recombinant DLL3, Donor 772. On the technique in general: Flow cytometry measures light scatter and fluorescence of single cells or particles in a stream.
Experimental: (§1) To determine the percentage of T cells that were successfully transduced with DLL3 CAR, T cells were first incubated with 1 ug/ml Flag tagged recombinant DLL3 (Adipogen) in PBS+1% BSA for 20 minutes at 4 C.

In assay [3] the target is T2, Flag tagged recombinant DLL3 (Adipogen). As to the kind of experiment: flow cytometry, percent of T cells that recognise recombinant DLL3, Donor 503.
Experimental: as §1
Assay [4] shares this target. As to the kind of experiment: flow cytometry, primary T cells with the CAR, 1 ug/ml Flag tagged recombinant DLL3, PE anti-Flag.
Experimental: as §1

B1: anti-DLL3 antibody 7F9 (IgG) (antibody, V domains shown)
VH: EVQLVESGGGLVQPGGSLRLSCAASGFTFSSHDMHWVRQATGKGLEWVSAIGIAGDTYYSGSVKGRFTISRENAKNSLYLQMNSLRAGDTAVYYCARANWGEGAFDIWGQGTMVTVSS
VL: DIQMTQSPSSLSASVGDRVTITCRASQGISDYLAWYQQKPGKIPKLLIYAASTLQSGVPSRFSGSGSGTDFTLTISSLQPEDVATYYCQKYNSVPLTFGGGTKVEIK
notes: Full-length monoclonal antibody (IgG)
As a reminder, the Kd is the constant that tells how readily two partners part at equilibrium. Low readings indicate a tighter complex, high ones a looser complex. With B1, in assay [1], the affinity, expressed as Kd, was 12.7 nM.

B2: 3G6 - L1 (other)
CAR: QVPLVQSGAEVKKPGSSVKVSCKASGGTFSTYSISWVRQAPGQGLEWMGGIIPIFGTTNYAQKFQGRVTITADKSTSTAYMELSSLRSEDTAVYYCARDGEGSYYYYYGMDVWGQGTTVTVSSGGGGSGGGGSGGGGSGGGGSQSVLTQPPSVSAAPGQKVTISCSGSSSNIGNNYVSWYQQLPGTAPKLLIYDNNKRPSGIPDRFFGSKFGTSATLGITGLQTGDEADYYCGTWDSSLSAVVFGGGTKLTVLTTTPAPRPPTPAPTIASQPLSLRPEACRPAAGGAVHTRGLDFACDIYIWAPLAGTCGVLLLSLVITKRGRKKLLYIFKQPFMRPVQTTQEEDGCSCRFPEEEEGGCELRVKFSRSADAPAYQQGQNQLYNELNLGRREEYDVLDKRRGRDPEMGGKPRRKNPQEGLYNELQKDKMAEAYSEIGMKGERRRGKGHDGLYQGLSTATKDTYDALHMQALPPR
notes: also called anti-DLL3 CAR with 3G6-L1 scFv, on primary T cells
On to B2, for which the results for the Transduction efficiency in assay [2] and in assay [3] were 14.2% and 35%, respectively.

B3: 11A3 (other)
CAR: QVQLQESGPGLVKPSETLSLTCTVSSDSISNYYWSWIRQPPGKGLEWISYIYYSGITNYNPSLKSRVTISVDTSKNQFSLKLSSVTAADTAVYYCARITVTGFYFDYWGQGTLVTVSSGGGGSGGGGSGGGGSGGGGSEIVLTQSPGTLSLSPGERATLSCRASQSISRSYLAWYQQKPGQAPRHLIYGASSRATGIPDRFSGSGSGTDFILTISRLEPEDFAVYYCQQYDTSPLTFGGGTKVEIKTTTPAPRPPTPAPTIASQPLSLRPEACRPAAGGAVHTRGLDFACDIYIWAPLAGTCGVLLLSLVITKRGRKKLLYIFKQPFMRPVQTTQEEDGCSCRFPEEEEGGCELRVKFSRSADAPAYQQGQNQLYNELNLGRREEYDVLDKRRGRDPEMGGKPRRKNPQEGLYNELQKDKMAEAYSEIGMKGERRRGKGHDGLYQGLSTATKDTYDALHMQALPPR
notes: also called anti-DLL3 CAR with 11A3 scFv, on primary T cells
Regarding B3, the Transduction efficiency in assay [2] was determined as 20%; in assay [3], 42.1%. The “Rec-DLL3 gate, percent of live CD3+ cells” value (“Rec-DLL3 gate, percent” below) in assay [4] was determined as 57.3%.

B4: anti-DLL3 antibody 2D3 (IgG) (antibody, V domains shown)
VH: QVQLQESGPGLVKPSETLSLTCTVSDNSISNYYWSWIRQPPGKGLEWIAYIYYSGTTNYNPSLKSRVTISLDTSKNQFSLKLSSVTAADTAVYYCARLFNWGFAFDIWGQGTMVTVSS
VL: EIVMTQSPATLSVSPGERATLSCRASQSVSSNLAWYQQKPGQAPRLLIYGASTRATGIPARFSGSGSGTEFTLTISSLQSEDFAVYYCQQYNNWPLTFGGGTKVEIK
notes: as for B1
B4 registered a Kd in assay [1] of 5.47 nM.

B5: anti-DLL3 antibody 8E11 (IgG) (antibody, V domains shown)
VH: QVQLQESGPGLVKPSETLSLTCTVSGDSISNYYWTWIRQPPGKGLEWIGYIYYSGTTNSNPSLKSRVTVSLDTSKSQFSLNLSSVTAADTAVYYCARVFNRGFAFDIWGQGTMVTVSS
VL: EIVLTQSPGTLSLSPGERATLSCRASQRISNTYLAWYQQKPGQAPRLLIYGASSRATGIPDRFSGSGSGTDFTLTISRLEPEDFAAYYCQQYDTSPLTFGGGTKVEIK
notes: as for B1
Take B5: in assay [1], the Kd came out at 5.86 nM.

B6: anti-DLL3 antibody 9D3 (IgG) (antibody, V domains shown)
VH: QVQLQESGPGLVKPSETLSLTCTVSDDSISNYYWSWIRQPPGKGLEWIGYIFYSGTTNHNPSLKSRLTISLDKAKNQFSLRLSSVTAADTAVYYCARVFNWGFAFDIWGQGTMVTVSS
VL: EIVLTQSPGTLSLSPGERATLSCRASQRISRTYLAWYQQKPGQAPRLLIYGASSRATGIPDRFTGSGSGTDFTLTISRLEPEDFAVYYCQQYGTSPLTFGGGTKVEIN
notes: as for B1
In turn, B6 came in with a Kd in assay [1] of 21.1 nM. Against the preceding molecule, the Kd is about 3.6-fold higher.

B7: 10G1-K (other)
CAR: EVQLLESGGGLVQPGGSLRLSCAASGFTFSSYAMNWVRQAPGKGLEWVSTISGSGGSTYYADSVKGRFTISRDNSKNTLYLQMNSLRAEDTAVFYCAIDPEYYDILTGGDYWGQGTLVTVSSGGGGSGGGGSGGGGGSGGGGSDIQMTQSPSAMSASVGDRVTITCRASQGISNYLAWFQQKPGKVPKRLIYAASSLQSGVPSRFSGSGSGTEFTLTISSLQPEDFATYFCLQHDSFPLTFGGGTKVEIKTTTPAPRPPTPAPTIASQPLSLRPEACRPAAGGAVHTRGLDFACDIYIWAPLAGTCGVLLLSLVITKRGRKKLLYIFKQPFMRPVQTTQEEDGCSCRFPEEEEGGCELRVKFSRSADAPAYQQGQNQLYNELNLGRREEYDVLDKRRGRDPEMGGKPRRKNPQEGLYNELQKDKMAEAYSEIGMKGERRRGKGHDGLYQGLSTATKDTYDALHMQALPPR
notes: also called anti-DLL3 CAR with 10G1-K scFv, on primary T cells
For B7, the Transduction efficiency came out at 33.7% in assay [2] and 53.7% in assay [3]. For the same molecule, the “Rec-DLL3 gate, percent” value in assay [4] was found to be 51.8%.

B8: 4H8 (other)
CAR: QVQLQQSGPGLVKPSQTLSLTCAISGDSVSSNSATWNWIRQSPSRGLEWLGRTYYRSKWYDDYAVSVKSRITINPDTSKNHLSLHLNSVTPEDTAVYYCAGGGLVGAPDGFDVWGQGTMVTVSSGGGGSGGGGSGGGGSGGGGSQSVLTQPPSASGTPGQRVTISCSGSSSNIGSDPVNWYQQLPGTAPKLLIYSNNQRPSGVPDRFSGSKSGTSASLAISGLQSEDEADYYCSAWDDSLNGYVFGTGTKVTVLTTTPAPRPPTPAPTIASQPLSLRPEACRPAAGGAVHTRGLDFACDIYIWAPLAGTCGVLLLSLVITKRGRKKLLYIFKQPFMRPVQTTQEEDGCSCRFPEEEEGGCELRVKFSRSADAPAYQQGQNQLYNELNLGRREEYDVLDKRRGRDPEMGGKPRRKNPQEGLYNELQKDKMAEAYSEIGMKGERRRGKGHDGLYQGLSTATKDTYDALHMQALPPR
notes: also called anti-DLL3 CAR with 4H8 scFv, on primary T cells
B8: the results for the Transduction efficiency in assay [2] and in assay [3] were 27.2% and 39.3%, respectively. Besides, the “Rec-DLL3 gate, percent” value in assay [4] was found to be 77.9%.

B9: 3G6 - L2 (other)
CAR: QVPLVQSGAEVKKPGSSVKVSCKASGGTFSTYSISWVRQAPGQGLEWMGGIIPIFGTTNYAQKFQGRVTITADKSTSTAYMELSSLRSEDTAVYYCARDGEGSYYYYYGMDVWGQGTTVTVSSGGGGSGGGGSGGGGSGGGGSQSVLTQPPSASGTPGQRVTISCSGSSSNIGSNYVYWYQQLPGTAPKLLIYSNNQRPSGVPDRFSGSKSGTSASLAISGLRSEDEADYYCAAWDDSLSGWVFGGGTKLTVLTTTPAPRPPTPAPTIASQPLSLRPEACRPAAGGAVHTRGLDFACDIYIWAPLAGTCGVLLLSLVITKRGRKKLLYIFKQPFMRPVQTTQEEDGCSCRFPEEEEGGCELRVKFSRSADAPAYQQGQNQLYNELNLGRREEYDVLDKRRGRDPEMGGKPRRKNPQEGLYNELQKDKMAEAYSEIGMKGERRRGKGHDGLYQGLSTATKDTYDALHMQALPPR
notes: also called anti-DLL3 CAR with 3G6-L2 scFv, on primary T cells
Turning to B9, the Transduction efficiency stood at 16.9% in assay [2] and 33.5% in assay [3].

B10: 4C6 (other)
CAR: QVQLQESGPGLVKPSETLSLTCTVSGDSISSYYWSWIRQPPGKGLEWIGYMYYSGITNYNPSLKSRVNISLDTSKNQFSLKLGSVTAADTAVYYCARLSVAGFYFDYWGQGTLVTVSSGGGGSGGGGSGGGGSGGGGSEIVLTQSPGTLSLSPGERATLSCRASQSVTRSYLAWYQQKPGQAPRLLIYGASSRATDIPDRFSGSGSGTDFTLTINRLEPEDFAVYYCQQYGTSPLTFGGGTKVEIKTTTPAPRPPTPAPTIASQPLSLRPEACRPAAGGAVHTRGLDFACDIYIWAPLAGTCGVLLLSLVITKRGRKKLLYIFKQPFMRPVQTTQEEDGCSCRFPEEEEGGCELRVKFSRSADAPAYQQGQNQLYNELNLGRREEYDVLDKRRGRDPEMGGKPRRKNPQEGLYNELQKDKMAEAYSEIGMKGERRRGKGHDGLYQGLSTATKDTYDALHMQALPPR
notes: also called anti-DLL3 CAR with 4C6 scFv, on primary T cells
With B10, the Transduction efficiency in assay [2] worked out at 25.2%; in assay [3] it was 56.9%.

B11: 9H12-K (other)
CAR: QVQLVQSGAEVKKPGASVKVSCKASGYTFTGYSIHWVRQAPGQGLEWMGWINPNSGGTFYAQKFQGRVTMTRDTSISTVYMELSRLRSDDTAVYYCARDGWGDYYYYGLDVWGQGTTVTVSLGGGGSGGGGSGGGGSGGGGSDIQMTQSPSSVSASVGDRVTITCRASQDISSWLAWYQQKPGKAPKLLIYTASSLQGGVPSRFSGSGSGTDFTLTISSLQPEDLATYSCQQANVFPYTFGQGTKLEIKTTTPAPRPPTPAPTIASQPLSLRPEACRPAAGGAVHTRGLDFACDIYIWAPLAGTCGVLLLSLVITKRGRKKLLYIFKQPFMRPVQTTQEEDGCSCRFPEEEEGGCELRVKFSRSADAPAYQQGQNQLYNELNLGRREEYDVLDKRRGRDPEMGGKPRRKNPQEGLYNELQKDKMAEAYSEIGMKGERRRGKGHDGLYQGLSTATKDTYDALHMQALPPR
notes: also called anti-DLL3 CAR with 9H12-K scFv, on primary T cells
With B11, the values for the Transduction efficiency in assay [2] and in assay [3] were 35.6% and 41.4%, respectively. For the same molecule, the “Rec-DLL3 gate, percent” value in assay [4] was 56.3%.
